Results reported in patent US20060234925A1.

How the values were obtained:
[1] = target: caprine CXCR3 (caprine (goat)) (UniProt Q867B2); assay: cell-based or functional assay
[2] = target: ovine CXCR3 on peripheral blood mononuclear cells (ovine); assay: cell-based or functional assay

UniProt Q867B2, sequence (Q867B2 whole entry): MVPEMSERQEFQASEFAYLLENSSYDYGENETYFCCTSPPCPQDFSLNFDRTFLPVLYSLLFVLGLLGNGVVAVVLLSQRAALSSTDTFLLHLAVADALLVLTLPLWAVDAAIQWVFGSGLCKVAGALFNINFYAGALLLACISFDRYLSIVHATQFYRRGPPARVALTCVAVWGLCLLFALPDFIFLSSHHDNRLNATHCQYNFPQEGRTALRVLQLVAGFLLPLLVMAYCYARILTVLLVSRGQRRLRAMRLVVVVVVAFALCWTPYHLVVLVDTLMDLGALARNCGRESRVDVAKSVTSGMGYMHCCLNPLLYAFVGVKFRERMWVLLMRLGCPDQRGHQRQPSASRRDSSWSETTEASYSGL

recombinant caprine IP-10 (N-terminal histidine tag, mature region, expressed from pET-14b-cIP-10 in E. coli BL21-SI) (ligand)
chemotaxis of HTS-1 cells transfected with caprine CXCR3 [1]: 1 to 20 ng/mL
chemotaxis of KU-1 cells transfected with caprine CXCR3 (modified Boyden chamber) [1]: 1 to 20 ng/mL
chemotaxis of ovine PBMCs [2]: 0.2 to 5 ng/mL
